The assay deals with chimeric Caspase-9 polypeptide. The experiment in a line: Caspase mutant classes and basal activity (Table 3). The format is cell-based, human. Particulars: class heading of Table 3; for IC50: ligand IC50.
chimeric Caspase-9 polypeptide, sequence (as listed by the source, change not shown): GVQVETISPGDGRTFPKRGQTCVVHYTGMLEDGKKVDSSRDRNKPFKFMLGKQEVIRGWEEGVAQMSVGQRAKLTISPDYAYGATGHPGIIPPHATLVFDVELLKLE

B1: N405Q-T3175 (protein, UniProt P55211 1-416, looked up, variant N405Q T317S)
chain: MDEADRRLLRRCRLRLVEELQVDQLWDALLSRELFRPHMIEDIQRAGSGSRRDQARQLIIDLETRGSQALPLFISCLEDTGQDMLASFLRTNRQAAKLSKPTLENLTPVVLRPEIRKPEVLRPETPRPVDIGSGGFGDVGALESLRGNADLAYILSMEPCGHCLIINNVNFCRESGLRTRTGSNIDCEKLRRRFSSLHFMVEVKGDLTAKKMVLALLELAQQDHGALDCCVVVILSHGCQASHLQFPGAVYGTDGCPVSVEKIVNIFNGTSCPSLGGKPKLFFIQACGGEQKDHGFEVASTSPEDESPGSNPEPDASPFQEGLRTFDQLDAISSLPTPSDIFVSYSTFPGFVSWRDPKSGSWYVETLDDIFEQWAHSEDLQSLLLRVANAVSVKGIYKQMPGCFQFLRKKLFFKTS
Take B1: the “Basal Activity” value is reported as “Decreased” and the IC50 result is given as “higher IC50”.

B2: N405Q-T317Sco (protein, UniProt P55211 1-416, looked up, variant N405Q T317S)
chain: MDEADRRLLRRCRLRLVEELQVDQLWDALLSRELFRPHMIEDIQRAGSGSRRDQARQLIIDLETRGSQALPLFISCLEDTGQDMLASFLRTNRQAAKLSKPTLENLTPVVLRPEIRKPEVLRPETPRPVDIGSGGFGDVGALESLRGNADLAYILSMEPCGHCLIINNVNFCRESGLRTRTGSNIDCEKLRRRFSSLHFMVEVKGDLTAKKMVLALLELAQQDHGALDCCVVVILSHGCQASHLQFPGAVYGTDGCPVSVEKIVNIFNGTSCPSLGGKPKLFFIQACGGEQKDHGFEVASTSPEDESPGSNPEPDASPFQEGLRTFDQLDAISSLPTPSDIFVSYSTFPGFVSWRDPKSGSWYVETLDDIFEQWAHSEDLQSLLLRVANAVSVKGIYKQMPGCFQFLRKKLFFKTS
Regarding B2, the “Basal Activity” value (marked *, predicted) was “Decreased”.

B3: N405Q-S144Aco (protein, UniProt P55211 1-416, looked up, variant N405Q S144A)
chain: MDEADRRLLRRCRLRLVEELQVDQLWDALLSRELFRPHMIEDIQRAGSGSRRDQARQLIIDLETRGSQALPLFISCLEDTGQDMLASFLRTNRQAAKLSKPTLENLTPVVLRPEIRKPEVLRPETPRPVDIGSGGFGDVGALEALRGNADLAYILSMEPCGHCLIINNVNFCRESGLRTRTGSNIDCEKLRRRFSSLHFMVEVKGDLTAKKMVLALLELAQQDHGALDCCVVVILSHGCQASHLQFPGAVYGTDGCPVSVEKIVNIFNGTSCPSLGGKPKLFFIQACGGEQKDHGFEVASTSPEDESPGSNPEPDATPFQEGLRTFDQLDAISSLPTPSDIFVSYSTFPGFVSWRDPKSGSWYVETLDDIFEQWAHSEDLQSLLLRVANAVSVKGIYKQMPGCFQFLRKKLFFKTS
modifications: codon optimized
Regarding B3, the “Basal Activity” value (marked *, predicted) was “Decreased”.

B4: N405Q-S144A (protein)
chain: GFGDVGALEALRGNADLAYILSMEPCGHCLIINNVNFCRESGLRTRTGSNIDCEKLRRRFSSLHFMVEVKGDLTAKKMVLALLELAQQDHGALDCCVVVILSHGCQASHLQFPGAVYGTDGCPVSVEKIVNIFNGTSCPSLGGKPKLFFIQACGGEQKDHGFEVASTSPEDESPGSNPEPDATPFQEGLRTFDQLDAISSLPTPSDIFVSYSTFPGFVSWRDPKSGSWYVETLDDIFEQWAHSEDLQSLLLRVANAVSVKGIYKQMPGCFQFLRKKLFFKTS
For B4, the “Basal Activity” value was “Decreased” and the IC50 entry is recorded as “higher IC50”.

B5: F404Y (protein)
chain: GFGDVGALESLRGNADLAYILSMEPCGHCLIINNVNFCRESGLRTRTGSNIDCEKLRRRFSSLHFMVEVKGDLTAKKMVLALLELAQQDHGALDCCVVVILSHGCQASHLQFPGAVYGTDGCPVSVEKIVNIFNGTSCPSLGGKPKLFFIQACGGEQKDHGFEVASTSPEDESPGSNPEPDATPFQEGLRTFDQLDAISSLPTPSDIFVSYSTFPGFVSWRDPKSGSWYVETLDDIFEQWAHSEDLQSLLLRVANAVSVKGIYKQMPGCYNFLRKKLFFKTS
B5: the “Basal Activity” value is listed as “Decreased” and the IC50 entry was “higher IC50”.

B6: F406W (protein)
chain: GFGDVGALESLRGNADLAYILSMEPCGHCLIINNVNFCRESGLRTRTGSNIDCEKLRRRFSSLHFMVEVKGDLTAKKMVLALLELAQQDHGALDCCVVVILSHGCQASHLQFPGAVYGTDGCPVSVEKIVNIFNGTSCPSLGGKPKLFFIQACGGEQKDHGFEVASTSPEDESPGSNPEPDATPFQEGLRTFDQLDAISSLPTPSDIFVSYSTFPGFVSWRDPKSGSWYVETLDDIFEQWAHSEDLQSLLLRVANAVSVKGIYKQMPGCFNWLRKKLFFKTS
On to B6, for which the “Basal Activity” value is given as “Decreased” and the IC50 result is “higher IC50”.

B7: F406A (protein)
chain: GFGDVGALESLRGNADLAYILSMEPCGHCLIINNVNFCRESGLRTRTGSNIDCEKLRRRFSSLHFMVEVKGDLTAKKMVLALLELAQQDHGALDCCVVVILSHGCQASHLQFPGAVYGTDGCPVSVEKIVNIFNGTSCPSLGGKPKLFFIQACGGEQKDHGFEVASTSPEDESPGSNPEPDATPFQEGLRTFDQLDAISSLPTPSDIFVSYSTFPGFVSWRDPKSGSWYVETLDDIFEQWAHSEDLQSLLLRVANAVSVKGIYKQMPGCFNALRKKLFFKTS
For B7, the “Basal Activity” value is on record as “Decreased” and the IC50 result is reported as “higher IC50”.

B8: F406Y (protein)
chain: GFGDVGALESLRGNADLAYILSMEPCGHCLIINNVNFCRESGLRTRTGSNIDCEKLRRRFSSLHFMVEVKGDLTAKKMVLALLELAQQDHGALDCCVVVILSHGCQASHLQFPGAVYGTDGCPVSVEKIVNIFNGTSCPSLGGKPKLFFIQACGGEQKDHGFEVASTSPEDESPGSNPEPDATPFQEGLRTFDQLDAISSLPTPSDIFVSYSTFPGFVSWRDPKSGSWYVETLDDIFEQWAHSEDLQSLLLRVANAVSVKGIYKQMPGCFNYLRKKLFFKTS
On to B8, for which the “Basal Activity” value is reported as “Decreased” and the IC50 entry is listed as “higher IC50”.

B9: N405Q-S144D (protein)
chain: GFGDVGALEDLRGNADLAYILSMEPCGHCLIINNVNFCRESGLRTRTGSNIDCEKLRRRFSSLHFMVEVKGDLTAKKMVLALLELAQQDHGALDCCVVVILSHGCQASHLQFPGAVYGTDGCPVSVEKIVNIFNGTSCPSLGGKPKLFFIQACGGEQKDHGFEVASTSPEDESPGSNPEPDATPFQEGLRTFDQLDAISSLPTPSDIFVSYSTFPGFVSWRDPKSGSWYVETLDDIFEQWAHSEDLQSLLLRVANAVSVKGIYKQMPGCFQFLRKKLFFKTS
In the case of B9, the “Basal Activity” value was “Decreased” and the IC50 result is “higher IC50”.

B10: N405Q-S196D (protein)
chain: GFGDVGALESLRGNADLAYILSMEPCGHCLIINNVNFCRESGLRTRTGSNIDCEKLRRRFSDLHFMVEVKGDLTAKKMVLALLELAQQDHGALDCCVVVILSHGCQASHLQFPGAVYGTDGCPVSVEKIVNIFNGTSCPSLGGKPKLFFIQACGGEQKDHGFEVASTSPEDESPGSNPEPDATPFQEGLRTFDQLDAISSLPTPSDIFVSYSTFPGFVSWRDPKSGSWYVETLDDIFEQWAHSEDLQSLLLRVANAVSVKGIYKQMPGCFQFLRKKLFFKTS
Regarding B10, the “Basal Activity” value is “Decreased” and the IC50 result is recorded as “higher IC50”.

The values are drawn from patent publication US20160263155A1, “T CELL RECEPTORS DIRECTED AGAINST THE PREFERENTIALLY EXPRESSED ANTIGEN OF MELANOMA AND USES THEREOF” (LEIDEN UNIVERSITY MEDICAL CENTER, priority 2015, published 2016).
